Test results as given in the NTF2 design screens of Basanta et al. (2020).

Assay: protease stability score; higher = more stable; yeast display proteolysis, trypsin and chymotrypsin;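 further: log10 excess protease needed over predicted unfolded state with 0 meaning unfolded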

Sequence	protease stability score
DEHVLRQVEEWLHNVQTGDEDRLIELVDPNARVEIGDKVIHGMHRMARDLRRKRENMDINIRDYRVQVRGDKARVDIEEQVHHNGRPNSRRFEIQVDADNGRVKQIKWQSES	0.125
EEEAHTHAEQWFRVLQTGDEERAMKMVDKNAQLQIGDKDIHGREDVRKYVHDRKNEQDVEIKRYSIEVSGNSFNVKIHVRMEHNGQPRTDVLDMKFEVSNGRLTKVSVQSNG	0.021
DEDKMKEVIEKVLRMLETGDPHEASKLADENAKIRYGDKTYHGRDQVHELLDRITKRVDHVEIKDFSVQGEQLVLHFVLNINGKNKEVVLVATVHNGRIKSLHVDDQ	1.26
DHDIRELFKRLVDAISTNDPQTMNNNMDKDVEARVGDQDYKGRENMAHELVKTREKIRLEMHLNSLNNEGDYVRVEVEQVLEDNGQPDRSVMDAEWRADNGRVQEYHVDEKP	-0.146
DEKRALEVIKRYAEYLKRGNADEARKMGKEGVEAEFGDTHVHGADQVKEYVKKVKDVGAHVEYKEVEYKGDTVTVKTEVTRGDAKVTFEVKYQAKGDKVVNLEMKFNKEQMKEFKKS	-0.015
DEEDLRHLIELMEKGDFSRIADQADEDVRVDIGDKRIHGREQVLTYAEKLSKNIDHVKIQHYHVEGNKLVVDMVIVVNGKDVRATLTAEISNGRLKHMELHATNEEQQTRLKEIIS	0.871
DEERAMKDAVDRMEKNVKNGNFDKMMNLADKDAKVVVGDDTYRGRDNNVKKNKEDKEEFDHAEVRFKEVEVENGRISIHADITLNVNGQDVTRRFNFELRNHNGTALIVRLTLK	0.188
DEEAQEVYHRLRKVLENNNPKEFEENVDKDVRFNIGDKRIHGREQASKDWKSRMEEQHRKITRVENQSHGNEFEVRAKVNYDHNGQPRQQDLSAHVVAENGKLKMATYEVRK	0.018
DEKAKDLFSKVMEAIRTGDEQKIRDNADPNVSVRYGDRNLTGREKVAETNYKIKRHMRIKIDHVRMEVHNGEAEVNVKRVITINGRPTRDTYRLIVVAQGDKLKSVVWKFSEEQRKRLEQ	0.411
EEDNRKHAEDIWRAIRKGDEERLKQLFDKDVKFHVGEKEIHGRENYARSVKERREEIKWSVTLDDVHVRGEKIVIRYTFTENNNGRPRHNVQVLEMTVTNGRVVNVDAKDDK	-0.148
DDEKQAHRAFEEWERALRTGNEEDLKRLADENVQVQVGDKQLDGREEVVKWMLDQAERVDHIQIDIKHLRIQNGRVEVNIIIQNNHNGQNQTHTMVVVMRNHNGNLYISDVQRR	1.31
DETDKAQKQFEHYERIAHTGDPDEMQRQADENARVEYGDKEVRGRKDVKKWAKDIKDTVDSVEFDIKSFEVQGDKITINVNIVYRSDGRQQSMEVNMVFDVRGDDIQIRSMKFR	0.434
DDDEMRELIKSIEEVLTDGDPDEFLKQIDPNAKAQYGDTRVSGSEEIRKMAEKFSDRVDHVDVRDIKVSGDTATFDMQIDHNGRNDTVIMIVEAHNGKVKHVQYHKG	0.142
DDDKRAEDWAKELIKVEQEGDEDQMERNADEDVRLKYGDTEIHGREQFREHVREQIERVDSVDVRIETFHMHNGRLDMVAEVEVQVDGRKHKDRFVFHAVDHNGRMLLKSASEG	0.522
DEDDLVRQMVDRAEEAAQTGDEKKFANLFDPNARFRYGDKDVHGREEWEKRLDEERKRADRLHIKFDSVRVHGDKVDLHFTWRVVVNGESSERVVIIHAVKQGDRIVAKYVREG	0.611
DDDKKAKNWMERMLHIFREGDEDSYKNNFDENAEINIGDKTYHGRDRVQRLFSEIKHNVDHLKIQFQDFSTHNGRWVLIFEYSRTHNGHTEQNVIVVNMEQHNGKVVVKSMREK	0.636
DEKLEKLVDEFIEAEHTNNPEELKKLIDPNARFRIGDKDVHGREEWNEDMKRINDELRIEVHIKHVDARGDHVDIEMEFTFNVNGRPVNQTAKQQIKFENGRMKRVVNNVSEDQVEQLHR	0.194
DEERLAKEVNDQYQHIMDTGDPDQARKLFDENARVDIGDKQYHGREEAVEAFQQRMNRVDHIDIKIDEVKVRNGEIDVKFEINQNSNGKNVHRNIRFTMRVNGDKYAIVDMHVQ	0.367
EEEKKNRAHQFLKAVERGDPEELRKQFDPNAHARVGDKRYHGMEEWAKDVMRRVRELRMSIKRLSVDVQGNDVKVNMNLVINRNGKPKEFREVWYFKIHNGHFVELHVQEEP	0.477
DEEDANNVAEQMMEIVERGDEERASELADPNAKFNIGDKKYEGRENLQKAIRHFRQRADHLEIKSLSVTPGHLKMRFVVKHNGQRNEVVIHVKAHNGKIVEIQVRNS	0.15
DEERVKQLAEKAFKAIQNNDQEKLEKMGKPNVQYEYVDKKYEGPEVVKVVIKVVQKIGAKLETQEQEVKGDTARATFQYKNGDKTMQTTAEVRYKGDKMEEFRMELSDEVKKVVHQG	-0.207
DEEEIHTMLEVLKQNDEQTLQDLFDENAKISVGEFRFHGRDEAIEFAREFNKAVDHVHYKRVDVQGNRARVKMQLNVNGKNIDVVVKVEIHNGRIKSLRIDVRDEQLRRDLEEAFR	1.71
DSTNVEILKEYVENQRRGNEDQLRRLMDPNVHVQVGDKQLHGDRQITDEFRRQQEHLRFSIKTYDYRDQGDKVRAHIVYEQMHNGRPETVRHNMVAEIHNGNIKYLQIESDQ	-0.301
DEEALKRVEKFWEALNTGNEDELRKQLDPNARIRIGDKDIQGREDMAKWVRRVNRQMKMTVTIEDMQTRPGRAEIDAKASVNHNGRPNQHDVKLSAEFHNGQITSLTVQLKG	0.592
DEEKEATKQVSEWIENMKSGDEDRLRELADKNAKVRYGDEEVHGMDQAAERWRNQRQKYDSLEVEVRDLKNHNGQVVVDQVERFNHNGKTDQRRVIITMERRPNHFVVQEVVQP	-0.331

Sequence	protease stability score
DSHAENLLQQVLKALETGDQKRVMELFDPNAKVRYGDKTLHGREEIRKYVKKLKDEMQIRIEVRSVTVQGNKITADVVVRADVDGKPVEMRVRIHVEFENGKIHSLSVDMDPEQVKELEK	1.56
DEEKQAHHLLRLLQEVLNNGDEDKARKLADPNVELSVGDKEVHGREKFTKYLYQISKRSDHANMSLTRIDTKPGRIVLVFTLRLNHNGNNTHKRMRAVASVRNGQVVVKHLVDQ	0.728
DEKQQARDLVKELRDALKHGNEKQVVKMADENAKLQVGDKKVHGRKDIDKWAKDLRDRVDHVRLEVRSIDVHNGRMKFTATFTETHNGRKKERTMTMRARIQGDKFKIQQINLS	0.247
EEEDAKRFKHLNERNDFTSLAKQVDEDATLRVGDKEIHGRERVTEFLEKAERAIDHVDIDSVDWSGDHVQFDAKYQVNGTTHHVIVRFRIHNGRIKYMQWDFTDDEVARRFLDNVQ	0.573
DDEMKKVVSRFVEAEKQGNPEDLKRNADPNVKVQVGDKTVNGRDKWATDLHKRRRDIDVEREYKSVHLTGDHLTMDVEAVYNVNGTPHKMRVTLRVVAHNGKIKKMHVQLSEEELRRLDR	0.229
DETEQAKKLLNDIENIFRTGDPKQLEKLAPPDVDVRVGDKEVHGKEQVVEELQRRQESFDHIEFNLHRVSVSGDKYRLDYEVRFDHNGRTETYRVVVVYVNNNGRLQDKSMTIK	0.684
SEERAKKVAKKLMEAFVKGNKDDAKDALQEDVQLHIAGTTYHGPKAVEKLIEFWQRVGVEVKVQEVRVKGNHVEIQTQVHLGDNTTTVRYKIQVEGDKVKKLQLNFSEEVFKQAKDG	1.76
DDHLRQVMEELKKAEDTGNPDRYVELADEDVEVHVGDTTLKGRTQHREEIKTQKDQSRLSINIQHVDVDGDKVRVQFVFENDHNGKPSTDRQQFVVRAHNGRVKRIENEERR	-0.114
DKEDVDHLERIMRKGDWDQLKDHADKDVTVVVGDRNIHGREKANNFLKRFKERVDHQEVRRLDVSGNEVVVDMVFNVNGRKIRATVVAVAHNGRLKEVVMRFTSEDDKRRATEAFD	0.454
DEEEAKKVVDQAVKYFQNGDAEKLRDLGKEGVKYRVADVEAHGPEVVLKAVERLKRQGVKIQYRKVEVKGDTVTTQLDYQQGDRTFTVTIEAEVKGGKIDRVEADANEDAKKIVKHG	0.172
DTEERAEDFMHIMQNAATHGDPNIQRHLADKHVRVEVGDKTVSGREEHKTEFDKRVKQYDSISVNMRKMEIDGDKARFNVEERYNTNGRNQHHDVKQQAIVQGDKVHLDRVDNK	-0.603
DDHAIRLLHEMIKAERTNDPDKLKEQMDPNAKIKYGDKTVHGRNDAVRYLEETVEHARVSIQVKSIKDQGDQAIADATITVNINGRPQQFKITIVAKFHNGRIKEVEIRVSEEQERQMES	0.785
DEELQKLVDDLLQALRSNNPEQFENNFDPNAKIRYGEKDVHGRTRFVKELQRERDDARFRIETYRVDNQGDKASLKMVFQRDHNGQPQRHTARAEIVVKNGKVQTAVFNFDS	-0.018
DEEANDLFRQIQTAENDNNPDEITELFDENATFRVGDRVIKGREKYAHKVVENLQKWRFTWDRIDVKARNGHARVTIRMTFNVNGKPDSYQAVMHLQFSNGRVQEIHMDIDPRKAKELLK	0.124
DEERSAHKFLKDMEKLMRTGDFQEVAKLFDKHAKVEVGDKRVHGREQIIRTNQQWEKRVDSVDLKIQHVSVKGEDVDVHYNMVLRYNGRNDNRVYRFVATVHGDKVRITHMELE	0.348
DDRQIEVLKDYIKAVQQNDPDRMRQNADPNATFNVGDKRYHGMTEYAEEVAKHLKEMRFEIRDIRLRDHNGKVHVEYEAEYEVNGQPFTQKVSFVAEVTNGHVKRVHYSTDEDLTRIEQK	-0.24
DERAIRTVTRFWTAIKHNDPDKAVENVDPNARFRIGDREVDGDEDAKQWIEEMKRHMHIDIRSLRARDQGDKIEINFKFVISYNGRPQSQTQHATARVHNGKIHEVDINFDDQKKRELDS	-0.006
DEDDWKKFMKFLKNLRNGDDEQAAKQADPNARFEYGDETIHGREHFRKHVKDTKDHARYSFNLKDYRVTPGRIEARMDVHSMENGRPDSNDVVLILSLSNGRIKKVEMKQVS	0.063
DEKDAEKVMRELAKAAVNGNYKKAVQLVKEDVQVEYMDQRTHGKEKLKEMLKKFTDLGAEVEYKEVHVKGDTVTVKVEAKMDGKKVKFKVQYVVTDHRLDKVTVKYSEEAYKVIKHG	0.525
DEEKNEEWAEQAQHLLETGDPDKFRTMIDENAKADVGDKRLHGRETIVEEIDRMTERVDHIQITRVSAKGNRVRVKMVLRVNGVNLDVVMVFNYHNGRIKSVQVEYRNREQQKRFES	0.388
EEEDEKRIKSLLEHNDFTRFAELVDKDAHAVIGDKTIHGREEIKKEIEEFKKRIDHLEWKRVDVRNGKVSARMQVTINGRTLDVYMRADVENGHIHYVEIHARTEEAQRVLDEVLS	1.58
EEDELRKIKDLLRHGDFETLNRQAPPDATQTVGDQEFTGWEKLHKIWKDLKDRIDHLDWKRITISGETIEARYEFDVDGQRIDMSFRMEVHNGRIQHLEQRATDSDLQKRLKDVIE	0.069
DEEEEKRMTKILEHNDFHKLADNADPNVQINIGDKHIHGRDQAQTFFKQMQKAADHWSIRTMNVRNGHIVVDLVMNVNGQNIRFNLRIERRNGHIKSASVQFTDPDQKRQFDENRS	0.599
DENDAKELRHFIEVMVRGDPSKLMQLADKDASFHIGEKQVHGREQISSEAEQRNREIKYEIKDLKVTVHGDKARVEAEMVKNHNGKPEHYRYVVTASLRNGKIKEVTVNKRQ	0.875
DEKTERDQARKLIHILEEGDEEKMANLMDENAHIQVGDTTYSGREDVRRFMQSWSERVDRFSVHSITAHNGKIDIDVEFVVNGRKVQMDLRFHVENGRIKTDKFQFRDEDKFKDMQS	0.295
